In patent publication US20260152536:

What was measured:
[1] = biological target: IL-12p70-L4s-TM (UniProt P43432)
[2] = biological target: IL-12p70-L3-TM (UniProt P43432)
[3] = biological target: IL-12p70-L4-TM (UniProt P43432)
[4] = biological target: IL-12p70-L2-TM (UniProt P43432)
[5] = biological target: IL-12p70-L5-TM (UniProt P43432)
Sequence of IL-12p70-L5-TM (P43432 other isoform, or with tags, fused parts or gaps): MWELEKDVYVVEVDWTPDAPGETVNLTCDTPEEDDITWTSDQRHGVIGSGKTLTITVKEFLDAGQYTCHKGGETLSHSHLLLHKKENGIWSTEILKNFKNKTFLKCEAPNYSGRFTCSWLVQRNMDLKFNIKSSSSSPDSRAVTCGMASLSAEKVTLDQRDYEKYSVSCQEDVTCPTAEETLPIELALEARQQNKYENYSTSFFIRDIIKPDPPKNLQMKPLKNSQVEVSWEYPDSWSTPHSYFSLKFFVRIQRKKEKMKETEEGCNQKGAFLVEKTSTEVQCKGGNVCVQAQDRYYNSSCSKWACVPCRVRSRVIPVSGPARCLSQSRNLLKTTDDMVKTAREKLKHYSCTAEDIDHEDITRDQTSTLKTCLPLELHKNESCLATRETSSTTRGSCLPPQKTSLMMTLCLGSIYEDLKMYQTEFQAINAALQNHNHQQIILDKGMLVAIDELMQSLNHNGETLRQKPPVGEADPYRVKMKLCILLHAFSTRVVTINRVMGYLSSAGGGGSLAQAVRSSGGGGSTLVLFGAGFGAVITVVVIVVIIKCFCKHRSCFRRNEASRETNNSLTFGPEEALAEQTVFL

Sequence of activated murine MMP2 (matrix metalloprotease 2) (chain, as listed by the source): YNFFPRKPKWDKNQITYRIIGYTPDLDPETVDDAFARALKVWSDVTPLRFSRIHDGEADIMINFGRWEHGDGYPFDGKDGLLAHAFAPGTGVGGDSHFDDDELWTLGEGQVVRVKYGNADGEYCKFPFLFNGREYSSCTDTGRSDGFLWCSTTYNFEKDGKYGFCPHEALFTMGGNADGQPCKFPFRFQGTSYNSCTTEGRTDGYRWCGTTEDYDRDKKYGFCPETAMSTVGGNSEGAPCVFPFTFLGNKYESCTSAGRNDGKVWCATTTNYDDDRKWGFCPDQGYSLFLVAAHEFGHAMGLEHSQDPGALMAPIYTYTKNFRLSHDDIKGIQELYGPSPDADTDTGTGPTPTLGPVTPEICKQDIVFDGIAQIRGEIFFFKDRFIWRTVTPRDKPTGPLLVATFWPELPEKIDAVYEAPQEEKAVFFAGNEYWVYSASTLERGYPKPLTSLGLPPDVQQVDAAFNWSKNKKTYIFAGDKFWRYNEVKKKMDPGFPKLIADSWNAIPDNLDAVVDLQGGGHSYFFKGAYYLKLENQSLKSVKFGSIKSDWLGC
Sequence of IL-12p70-L2-TM (P43432 other isoform, or with tags, fused parts or gaps): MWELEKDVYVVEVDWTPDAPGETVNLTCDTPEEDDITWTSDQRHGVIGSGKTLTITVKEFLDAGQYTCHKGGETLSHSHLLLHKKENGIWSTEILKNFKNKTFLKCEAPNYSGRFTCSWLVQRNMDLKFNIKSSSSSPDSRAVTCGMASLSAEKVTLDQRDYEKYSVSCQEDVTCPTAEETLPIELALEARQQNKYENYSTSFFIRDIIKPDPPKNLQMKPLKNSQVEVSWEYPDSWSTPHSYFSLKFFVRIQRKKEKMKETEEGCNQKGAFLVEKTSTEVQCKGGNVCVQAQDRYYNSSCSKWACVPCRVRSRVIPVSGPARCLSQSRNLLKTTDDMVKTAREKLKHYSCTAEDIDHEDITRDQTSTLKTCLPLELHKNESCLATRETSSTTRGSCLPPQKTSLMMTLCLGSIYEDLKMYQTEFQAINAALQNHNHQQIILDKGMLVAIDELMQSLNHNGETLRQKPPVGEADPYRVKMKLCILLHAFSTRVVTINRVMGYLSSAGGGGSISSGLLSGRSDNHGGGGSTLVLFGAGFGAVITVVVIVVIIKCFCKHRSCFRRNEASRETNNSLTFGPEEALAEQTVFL
Sequence of IL-12p70-L4-TM (P43432 other isoform, or with tags, fused parts or gaps): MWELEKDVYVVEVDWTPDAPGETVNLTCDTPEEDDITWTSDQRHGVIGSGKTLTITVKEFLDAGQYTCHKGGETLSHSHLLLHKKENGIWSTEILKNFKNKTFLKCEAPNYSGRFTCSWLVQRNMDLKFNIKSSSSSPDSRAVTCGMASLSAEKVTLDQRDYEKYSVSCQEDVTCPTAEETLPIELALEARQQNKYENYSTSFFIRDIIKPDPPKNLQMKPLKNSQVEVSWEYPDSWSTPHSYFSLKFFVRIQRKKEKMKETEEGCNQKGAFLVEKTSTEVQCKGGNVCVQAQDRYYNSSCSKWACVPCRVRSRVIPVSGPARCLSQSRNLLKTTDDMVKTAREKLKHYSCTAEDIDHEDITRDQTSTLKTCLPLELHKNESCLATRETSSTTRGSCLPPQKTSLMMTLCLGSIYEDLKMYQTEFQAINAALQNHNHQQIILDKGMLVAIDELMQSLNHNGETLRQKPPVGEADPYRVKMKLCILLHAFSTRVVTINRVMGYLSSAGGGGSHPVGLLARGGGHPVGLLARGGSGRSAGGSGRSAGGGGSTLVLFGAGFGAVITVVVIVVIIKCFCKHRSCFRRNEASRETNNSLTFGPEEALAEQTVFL
Sequence of IL-12p70-L3-TM (P43432 other isoform, or with tags, fused parts or gaps): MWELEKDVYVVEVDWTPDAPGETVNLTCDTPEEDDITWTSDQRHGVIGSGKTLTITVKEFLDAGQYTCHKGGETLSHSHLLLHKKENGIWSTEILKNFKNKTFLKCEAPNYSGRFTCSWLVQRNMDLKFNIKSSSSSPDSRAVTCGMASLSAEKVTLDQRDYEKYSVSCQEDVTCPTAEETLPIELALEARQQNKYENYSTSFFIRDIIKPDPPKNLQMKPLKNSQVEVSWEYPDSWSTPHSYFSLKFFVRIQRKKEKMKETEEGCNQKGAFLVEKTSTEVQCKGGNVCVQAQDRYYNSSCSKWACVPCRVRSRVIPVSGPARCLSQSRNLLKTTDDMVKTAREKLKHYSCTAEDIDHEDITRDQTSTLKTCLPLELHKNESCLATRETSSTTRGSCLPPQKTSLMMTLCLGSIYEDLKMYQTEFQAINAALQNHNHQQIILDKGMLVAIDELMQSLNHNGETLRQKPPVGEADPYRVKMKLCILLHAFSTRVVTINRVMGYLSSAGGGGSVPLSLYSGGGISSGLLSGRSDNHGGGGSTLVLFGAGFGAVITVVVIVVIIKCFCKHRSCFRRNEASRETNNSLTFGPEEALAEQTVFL
Sequence of IL-12p70-L4s-TM (P43432 other isoform, or with tags, fused parts or gaps): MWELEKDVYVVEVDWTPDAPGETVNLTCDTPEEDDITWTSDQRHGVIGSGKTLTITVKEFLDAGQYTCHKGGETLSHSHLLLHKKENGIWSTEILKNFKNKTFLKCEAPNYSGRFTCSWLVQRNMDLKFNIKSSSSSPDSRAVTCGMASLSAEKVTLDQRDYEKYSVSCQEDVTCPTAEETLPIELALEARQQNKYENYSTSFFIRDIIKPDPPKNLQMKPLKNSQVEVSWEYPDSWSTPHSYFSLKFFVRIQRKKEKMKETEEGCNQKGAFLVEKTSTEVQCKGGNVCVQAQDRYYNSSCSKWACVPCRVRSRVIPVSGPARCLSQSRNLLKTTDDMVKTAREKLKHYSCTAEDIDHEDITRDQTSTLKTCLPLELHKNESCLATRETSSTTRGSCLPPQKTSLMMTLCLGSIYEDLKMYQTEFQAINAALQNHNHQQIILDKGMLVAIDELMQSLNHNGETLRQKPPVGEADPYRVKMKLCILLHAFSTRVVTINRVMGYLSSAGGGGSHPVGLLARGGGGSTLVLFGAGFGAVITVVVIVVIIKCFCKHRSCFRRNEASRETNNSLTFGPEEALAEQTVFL

Question: What does the source list for “activated murine MMP2 (matrix metalloprotease 2)”?
Answer: release of cleaved (therefore soluble) IL-12p70 into the supernatant, ELISA [1]: a time-dependent release of IL-12p70 was observed; release of cleaved (therefore soluble) IL-12p70 into the supernatant, ELISA [2]: a time-dependent release of IL-12p70 was observed; release of cleaved (therefore soluble) IL-12p70 into the supernatant, ELISA [3]: a time-dependent release of IL-12p70 was observed; release of cleaved (therefore soluble) IL-12p70 into the supernatant, ELISA [4]: a time-dependent release of IL-12p70 was observed; release of cleaved (therefore soluble) IL-12p70 into the supernatant, ELISA [5]: a time-dependent release of IL-12p70 was observed
